From patent US6699837

Legend:
[1] = biological target: HGF receptor (c-met) on human cell lines of the central nervous system (T98G glioblastoma, GOTO and SCCH-26 neuroblastoma) (human) (UniProt P08581); experiment: ^125I-HGF saturation binding on T98G cells, Scatchard analysis
[2] = biological target: HGF receptor (c-met) on human cell lines of the central nervous system (T98G glioblastoma, GOTO and SCCH-26 neuroblastoma) (human) (UniProt P08581); experiment: ^125I-HGF saturation binding on GOTO cells, Scatchard analysis
[3] = biological target: HGF receptor (c-met) on human cell lines of the central nervous system (T98G glioblastoma, GOTO and SCCH-26 neuroblastoma) (human) (UniProt P08581); experiment: ^125I-HGF saturation binding on SCCH-26 cells, Scatchard analysis
[4] = biological target: HGF receptor (c-met) on human cell lines of the central nervous system (T98G glioblastoma, GOTO and SCCH-26 neuroblastoma) (human) (UniProt P08581); experiment: ^125I-HGF binding on T98G, GOTO and SCCH-26 cells, Scatchard analysis (range told of the three cell lines)

Sequence of Human recombinant HGF (hepatocyte growth factor), radioiodinated (^125I-HGF) (P14210 32-728 limits assumed): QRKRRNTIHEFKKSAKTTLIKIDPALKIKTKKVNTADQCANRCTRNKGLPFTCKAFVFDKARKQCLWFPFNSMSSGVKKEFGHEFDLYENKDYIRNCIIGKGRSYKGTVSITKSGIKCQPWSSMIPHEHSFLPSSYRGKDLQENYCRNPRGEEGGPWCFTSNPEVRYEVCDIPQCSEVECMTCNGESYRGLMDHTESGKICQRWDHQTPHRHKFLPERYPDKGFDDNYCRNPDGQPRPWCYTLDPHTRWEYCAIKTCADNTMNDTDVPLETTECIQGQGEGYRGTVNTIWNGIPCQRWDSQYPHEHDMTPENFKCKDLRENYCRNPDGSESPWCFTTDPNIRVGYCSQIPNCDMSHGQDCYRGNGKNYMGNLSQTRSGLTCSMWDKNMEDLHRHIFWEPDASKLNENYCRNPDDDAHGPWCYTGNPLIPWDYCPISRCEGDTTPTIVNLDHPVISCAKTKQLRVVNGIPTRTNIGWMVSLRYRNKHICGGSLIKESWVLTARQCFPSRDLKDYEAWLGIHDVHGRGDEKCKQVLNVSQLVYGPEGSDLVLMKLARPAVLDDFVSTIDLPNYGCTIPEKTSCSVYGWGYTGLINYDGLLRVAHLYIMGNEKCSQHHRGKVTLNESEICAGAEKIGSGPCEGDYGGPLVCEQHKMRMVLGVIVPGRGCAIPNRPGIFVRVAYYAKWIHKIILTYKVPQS

B max (sites/cell) [1]: 540 sites/cell
Kd [1]: 0.031 nM
B max (sites/cell) [2]: 120 sites/cell
Kd [2]: 0.03 nM
B max (sites/cell) [3]: 60 sites/cell
Kd [3]: 0.02 nM
Kd [4]: 0.03 to 0.04 nM
Substance: Human recombinant HGF (hepatocyte growth factor), radioiodinated (^125I-HGF) (from UniProt P14210 32-728) (ligand)
